In patent publication US20160347850A1 (AbbVie / Abbott, published 2016):
Substitutions are numbered along the chain they refer to. Like-named read-outs stand apart in the source and are kept apart here. One block for each molecule: values may come before it.

Key:
Human CD40 [1] = molecular target: T1, Human CD40 (human, UniProt P25942 21-277); test: cell-based or functional assay
Human CD40 [2] = molecular target: T1, Human CD40; test: cell-based or functional assay; remark: listed apart in the source
Human CD40 [3] = molecular target: T1, Human CD40; test: cell-based or functional assay; remark: listed apart in the source
Human CD40 [4] = molecular target: T1, Human CD40; test: cell-based or functional assay; remark: listed apart in the source
Human CD40 [5] = molecular target: T1, Human CD40; test: FACS blocking of sCD40L binding to CD40 expressing HEK cells
Method: FACS analysis was also used to determine whether the three chimeric antibodies could inhibit binding of soluble CD40 ligand (sCD40L) to CD40. Using CD40 expressing HEK cells, IC50 values were measured. As described in Table 10, each of the chimeric antibodies was able to block CD40 binding to its ligand.

Human CD40 [6] = molecular target: T1, Human CD40; test: cell-based or functional assay; remark: listed apart in the source
cyno CD40 [7] = molecular target: T2, cyno CD40 (cynomolgus monkey, UniProt G7PG38 21-278); test: FACS binding on HEK cells expressing cyCD40
T2 construct: whole, on cells; also called cyCD40; cynomolgus monkey CD40

cyno CD40 [8] = molecular target: T2, cyno CD40; test: FACS on HEK cells expressing cyno CD40

T1 sequence (P25942 21-277 limits assumed): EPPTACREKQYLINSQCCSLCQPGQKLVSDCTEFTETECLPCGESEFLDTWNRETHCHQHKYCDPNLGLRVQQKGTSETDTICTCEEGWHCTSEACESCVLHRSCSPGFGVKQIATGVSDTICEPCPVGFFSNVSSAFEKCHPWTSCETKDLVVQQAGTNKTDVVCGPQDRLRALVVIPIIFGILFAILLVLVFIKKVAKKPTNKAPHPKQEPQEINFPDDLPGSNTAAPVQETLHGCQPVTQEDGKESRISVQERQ

- production of TNF from monocytes, EC50 (agonist assay format) (Human CD40 [1]): 1.9 nM
Molecule: MEGACD40L (Enzo) (ligand)

- Antagonist: Jurkat/Reporter assay IC50 (Human CD40 [2]): 85 nM
B1: huAb1v6 (antibody, V domains shown)
VH: EVQLVESGGGLVKPGGSLRLSCAASGFTFSDYGMNWVRQAPGKGLEWIAYISSGRSNIYYADTVKGRFTISRDNAKNSLYLQMNSLRAEDTAVYYCARSWGYFDVWGQGTTVTVSS
VL: DIVMTQSPDSLAVSLGERATINCKSSQSLLNLGNQKNYLTWFQQKPGQPPKLLIYWASTRESGVPDRFSGSGSGTDFTLTISSLQAEDVAVYYCQNDYTYPLTFGQGTKLEIK

- Antagonist: Jurkat/Reporter assay (IC50 nM) (Human CD40 [3]): 62.4 nM
B2: huAb1v1CDR2v13 (antibody, V domains shown)
VH: B1 VH with S56H
VL: B1 VL with L32R

- Antagonist: Jurkat/Reporter assay (IC50 nM) (Human CD40 [3]): 236 nM
B3: huAb1v1CDR2v12 (antibody, V domains shown)
VH: B1 VH with S56K
VL: B1 VL with L32R

- Antagonist: Jurkat/Reporter assay (IC50 nM) (Human CD40 [3]): 23 nM
B4: huAb1v1CDR2v10 (antibody, V domains shown)
VH: B1 VH with S56W
VL: B1 VL with L32R

- Antagonist: Jurkat/Reporter assay (IC50 nM) (Human CD40 [3]): 2.69 nM
- antagonistic activity in comparison to antibody huAb1v1 (Human CD40 [4]): 20 fold
B5: huAb1v1CDR2v7 (antibody, V domains shown)
VH: B1 VH with S56G
VL: B1 VL with L32R

- Antagonist: Jurkat/Reporter assay (IC50 nM) (Human CD40 [3]): > 1000 nM
B6: huAb1v1CDR2v2 (antibody, V domains shown)
VH: B1 VH with S56D
VL: B1 VL with L32R

- IC50 (Human CD40 [5]): 2.3 nM
- Antagonist: His-CD40L reporter assay IC50 (Human CD40 [6]): 0.4 nM
- Antagonist: Jurkat/Reporter assay IC50 (Human CD40 [6]): 51 nM
B7: chimeric Ab1 (chAb1) (antibody, V domains shown)
VH: B1 VH with R19K, L20V, G42E, S78T, Y80F, N84T, A88S, V93M, Q108T
VL: DIVMTQSPSSLTVTAGEMVTMSCKSSQSLLNSGNQKNYLTWFQQKPGQPPKLLIYWASTRESGVPDRFAGSGSGTDFTLTISSVQAEDLAVYYCQNDYTYPLTFGAGTKLEIK
notes: Murine Ab1 variable regions on human constant regions; also called chimeric antibody (Antibody 1 (Ab1))

- Antagonist: Jurkat/Reporter assay (IC50 nM) (Human CD40 [3]): 21.9 nM
B8: huAb1v1CDR2v14 (antibody, V domains shown)
VH: B1 VH with S56F
VL: B1 VL with L32R

- Antagonist: Jurkat/Reporter assay (IC50 nM) (Human CD40 [3]): 563 nM
B9: huAb1v1CDR2v4 (antibody, V domains shown)
VH: B1 VH with S56R
VL: B1 VL with L32R

- Antagonist: Jurkat/Reporter assay (IC50 nM) (Human CD40 [3]): > 1000 nM
B10: huAb1v1CDR2v11 (antibody, V domains shown)
VH: B1 VH with S56M
VL: B1 VL with L32R

- Antagonist: Jurkat/Reporter assay (IC50 nM) (Human CD40 [3]): > 1000 nM
B11: huAb1v1CDR2v5 (antibody, V domains shown)
VH: B1 VH with S56V
VL: B1 VL with L32R

- Antagonist: Jurkat/Reporter assay (IC50 nM) (Human CD40 [3]): > 1000 nM
B12: huAb1v1CDR2v8 (antibody, V domains shown)
VH: B1 VH with S56I
VL: B1 VL with L32R

- Antagonist: Jurkat/Reporter assay (IC50 nM) (Human CD40 [3]): > 1000 nM
B13: huAb1v1CDR2v1 (antibody, V domains shown)
VH: B1 VH with S56T
VL: B1 VL with L32R

- Antagonist: Jurkat/Reporter assay (IC50 nM) (Human CD40 [3]): 7.06 nM
B14: huAb1v1CDR2v9 (antibody, V domains shown)
VH: B1 VH with S56Q
VL: B1 VL with L32R

- Antagonist: Jurkat/Reporter assay (IC50 nM) (Human CD40 [3]): 219 nM
B15: huAb1v1CDR2v3 (antibody, V domains shown)
VH: B1 VH with S56E
VL: B1 VL with L32R

- Antagonist: Jurkat/Reporter assay (IC50 nM) (Human CD40 [3]): 340 nM
B16: huAb1v1CDR2v15 (antibody, V domains shown)
VH: B1 VH with S56Y
VL: B1 VL with L32R

- Antagonist: Jurkat/Reporter assay (IC50 nM) (Human CD40 [3]): 30.1 nM
B17: huAb1v1CDR2v16 (antibody, V domains shown)
VH: B1 VH with S56A
VL: B1 VL with L32R

- Antagonist: Jurkat/Reporter assay (IC50 nM) (Human CD40 [3]): 504 nM
B18: huAb1v1CDR2v17 (antibody, V domains shown)
VH: B1 VH with S56P
VL: B1 VL with L32R

- Antagonist: Jurkat/Reporter assay (IC50 nM) (Human CD40 [3]): > 1000 nM
B19: huAb1v1CDR2v6 (antibody, V domains shown)
VH: B1 VH with S56L
VL: B1 VL with L32R

- IC50 (Human CD40 [5]): 1.4 nM
- Antagonist: His-CD40L reporter assay IC50 (Human CD40 [6]): 0.3 nM
- Antagonist: Jurkat/Reporter assay IC50 (Human CD40 [6]): 3.4 nM
- binding result (cyno CD40 [7]): binds
B20: chimeric Ab2 (chAb2) (antibody, V domains shown)
VH: EVQLVESGGGLVKPGGSLKVSCAASGFTFSDYGMNWVRQSPEKGLEWIAYISSGRGNIYYADTVKGRFTISRDNAKNTLFLQMTSLRSEDTAMYYCARSWGYFDVWGTGTTVTVSS
VL: B7 VL with M18K, A69T, I112L

- Antagonist: Jurkat/Reporter assay IC50 (Human CD40 [2]): > 100 nM
B21: huAb1v2 (antibody, V domains shown)
VH: B1 VH with I48V, A49S
VL: B1 VL with L32T

- Agonist: huCD40 reporter assay IC50 (Human CD40 [2]): 49 nM
B22: huAb1v4 (antibody, V domains shown)
VH: B1 VH
VL: B1 VL with L32P

- Agonist: huCD40 reporter assay IC50 (Human CD40 [2]): 79 nM
B23: huAb1v3 (antibody, V domains shown)
VH: B1 VH with I48V, A49S
VL: B1 VL

- Antagonist: Jurkat/Reporter assay IC50 (Human CD40 [2]): > 100 nM
B24: huAb1v5 (antibody, V domains shown)
VH: B1 VH
VL: B1 VL with L32T

- Antagonist: Jurkat/Reporter assay IC50 (Human CD40 [2]): 55 nM
B25: huAb1v1 (antibody, V domains shown)
VH: B1 VH
VL: B1 VL with L32R

- IC50 (Human CD40 [5]): 1.4 nM
- binding result (cyno CD40 [8]): no binding
- Antagonist: His-CD40L reporter assay IC50 (Human CD40 [6]): 0.2 nM
- Antagonist: Jurkat/Reporter assay IC50 (Human CD40 [6]): 0.9 nM
B26: chimeric Ab3 (chAb3) (antibody, V domains shown)
VH: QVQLQQSGAELARPGASVKMSCKAFGYTFTSYTMHWVKQRPGQGLEWIGYINPSSDYPNYNQKFKDKATLTADKSSSTAYMQLSSLTSEDSAVYYCARWGYSFDYWGQGTTLTVSS
VL: DIVMTQAAPSVSVIPGESVSISCRSSKSLLHSNGNTYLYWFLQRPGQSPQYLIYRMSTLASGVPDRFSGSGSGTAFTLRISRVEAEDVGVYYCMQHLEYPLTFGAGTKLELK
notes: also called chimeric Antibody 3
